Measurements from publication PMC13545989.

B1: TRAK2/mScarlet fusion protein (wild type), O60296 F92A; M95A (protein)
chain: MSQSQNAIFTSPTGEENLMNSNHRDSESITDVCSNEDLPEVELVSLLEEQLPQYRLKVDTLFLYENQDWTQSPHQRQHASDALSPVLAEETARYAILGTDRVEQMTKTYNDIDMVTHLLAERDRDLELAARIGQALLKRNHVLSEQNESLEEQLGQAFDQVNQLQHELCKKDELLRIVSIASEESETDSSCSTPLRFNESFSLSQGLLQLEMLQEKLKELEEENMALRSKACHIKTETVTYEEKEQQLVSDCVKELRETNAQMSRMTEELSGKSDELIRYQEELSSLLSQIVDLQHKLKEHVIEKEELKLHLQASKDAQRQLTMELHELQDRNMECLGMLHESQEEIKELRSRSGPTAHLYFSQSYGAFTGESLAAEIEGTMRKKLSLDEESSLFKQKAQQKRVFDTVRIANDTRGRSISFPALLPIPGSNRSSVIMTAKPFESGLQQTEDKSLLNQGSSSEEVAGSSQKMGQPGPSGDSDLATALHRLSLRRQNYLSEKQFFAEEWQRKIQVLADQKEGVSGCVTPTESLASLCTTQSEITDLSSASCLRGFMPEKLQIVKPLEGSQTLYHWQQLAQPNLGTILDPRPGVITKGFTQLPGDAIYHISDLEEDEEEGITFQVQQPLEVEEKLSTSKPVTGIFLPPITSAGGPVTVATANPGKCLSCTNSTFTFTTCRILHPSDITQVTPSSGFPSLSCGSSGSSSSNTAVNSPALSYRLSIGESITNRRDSTTTFSSTMSLAKLLQERGISAKVYHSPISENPLQPLPKSLAIPSTPPNSPSHSPCPSPLPFEPRVHLSENFLASRPAETFLQEMYGLRPSRNPPDVGQLKMNLVDRLKRLGIARVVKNPGAQENGRCQEAEIGPQKPDSAVYLNSGSSLLGGLRRNQSLPVIMGSFAAPVCTSSPKMGVLKED
B2: TRAK1/mScarlet fusion protein (wild type), Q9UPV9 L92A; F95A (protein)
chain: MALVFQFGQPVRAQPLPGLCHGKLIRTNACDVCNSTDLPEVEIISLLEEQLPHYKLRADTIYGYDHDDWLHTPLISPDANIDLTTEQIEETAKYALLCAERVGQMTKTYNDIDAVTRLLEEKERDLELAARIGQSLLKKNKTLTERNELLEEQVEHIREEVSQLRHELSMKDELLQFYTSAAEESEPESVCSTPLKRNESSSSVQNYFHLDSLQKKLKDLEEENVVLRSEASQLKTETITYEEKEQQLVNDCVKELRDANVQIASISEELAKKTEDAARQQEEITHLLSQIVDLQKKAKACAVENEELVQHLGAAKDAQRQLTAELRELEDKYAECMEMLHEAQEELKNLRNKTMPNTTSRRYHSLGLFPMDSLAAEIEGTMRKELQLEEAESPDITHQKRVFETVRNINQVVKQRSLTPSPMNIPGSNQSSAMNSLLSSCVSTPRSSFYGSDIGNVVLDNKTNSIILETEAADLGNDERSKKPGTPGTPGSHDLETALRRLSLRRENYLSERRFFEEEQERKLQELAEKGELRSGSLTPTESIMSLGTHSRFSEFTGFSGMSFSSRSYLPEKLQIVKPLEGSATLHHWQQLAQPHLGGILDPRPGVVTKGFRTLDVDLDEVYCLNDFEEDDTGDHISLPRLATSTPVQHPETSAHHPGKCMSQTNSTFTFTTCRILHPSDELTRVTPSLNSAPTPACGSTSHLKSTPVATPCTPRRLSLAESFTNTRESTTTMSTSLGLVWLLKERGISAAVYDPQSWDRAGRGSLLHSYTPKMAVIPSTPPNSPMQTPTSSPPSFEFKCTSPPYDNFLASKPASSILREVREKNVRSSESQTDVSVSNLNLVDKVRRFGVAKVVNSGRAHVPTLTEEQGPLLCGPPGPAPALVPRGLVPEGLPLRCPTVTSAIGGLQLNSGIRRNRSFPTMVGSSMQMKAPVTLTSGILMGAKLSKQTSLR

How the values were obtained:
[1] = target: TRAK1/mScarlet fusion protein (wild type) (UniProt Q9UPV9); experiment: co-IP; FLAG purification of Miro1/FP/FLAG/I3-01 synthetic cargo from hTERT RPE-1 cell lines co-expressing TRAK/mScarlet variants; immunoblot of the associated motor-adaptor components (kinesin, dynein, dynactin); also done after kinesin RNAi (fig. S4E)
kinesin-1, P33176 = target: T1, kinesin-1, P33176; experiment: FLAG immunoprecipitation of synthetic cargo, immunoblot quantification (anti-KIF5B); conditions: chain shown with the change; IP: flag; hTERT RPE-1 cells; n=4; parent: est. 1.0; read off a plot
T1 chain: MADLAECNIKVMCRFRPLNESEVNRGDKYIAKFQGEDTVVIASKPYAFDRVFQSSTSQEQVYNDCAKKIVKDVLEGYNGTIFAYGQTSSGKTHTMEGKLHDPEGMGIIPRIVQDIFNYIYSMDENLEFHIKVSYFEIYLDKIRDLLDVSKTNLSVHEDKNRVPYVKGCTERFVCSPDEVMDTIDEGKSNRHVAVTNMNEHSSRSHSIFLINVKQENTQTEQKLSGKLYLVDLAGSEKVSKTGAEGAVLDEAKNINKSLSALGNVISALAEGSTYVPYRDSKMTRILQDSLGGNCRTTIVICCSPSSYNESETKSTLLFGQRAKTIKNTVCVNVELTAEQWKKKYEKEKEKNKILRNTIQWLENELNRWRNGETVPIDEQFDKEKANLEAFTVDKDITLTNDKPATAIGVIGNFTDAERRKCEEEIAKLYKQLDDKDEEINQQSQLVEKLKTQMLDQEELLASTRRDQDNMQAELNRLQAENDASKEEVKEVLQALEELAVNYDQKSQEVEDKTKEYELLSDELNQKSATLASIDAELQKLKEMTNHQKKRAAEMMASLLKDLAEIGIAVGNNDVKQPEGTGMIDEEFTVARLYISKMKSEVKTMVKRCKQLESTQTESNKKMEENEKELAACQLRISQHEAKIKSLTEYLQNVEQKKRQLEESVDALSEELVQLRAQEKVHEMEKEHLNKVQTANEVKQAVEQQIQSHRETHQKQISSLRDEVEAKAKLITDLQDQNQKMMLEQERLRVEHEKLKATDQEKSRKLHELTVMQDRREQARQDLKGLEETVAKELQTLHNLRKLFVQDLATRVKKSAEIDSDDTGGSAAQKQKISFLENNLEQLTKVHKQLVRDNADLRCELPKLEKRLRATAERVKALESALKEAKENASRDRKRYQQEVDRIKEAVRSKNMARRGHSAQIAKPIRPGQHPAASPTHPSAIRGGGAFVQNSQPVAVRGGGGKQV

| Molecule | fold enrichment versus TRAK2-driven synthetic cargo [1] | ratio to parent (kinesin-1, P33176) |
| --- | --- | --- |
| kinesin-1 (from UniProt P33176 1-963) (natural protein) | 20 fold |  |
| B1 |  | 0.46 |
| B2 |  | 0.02 |
